Numbering of substitutions follows the chain as printed.
B1: unnamed (protein)
chain: MRPPWYPLHTPSLAFPLLFLLLSLLGGGARAEGREDPQLLVRVRGGQLRGIRLKAPGGPVSAFLGIPFAEPPVGSRRFMPPEPKRPWSGVLDATTFQNVCYQYVDTLYPGFEGTEMWNPNRELSEDCLYLNVWTPYPRPASPTPVLIWIYGGGFYSGAASLDVYDGRFLAQVEGAVLVSMNYRVGTFGFLALPGSREAPGNVGLLDQRLALQWVQENIAAFGGDPMSVTLFGESAGAASVGMHILSLPSRSLFHRAVLQSGTPNGPWATVSAGEARRRATLLARLVGCPPGGAGGNDTELIACLRTRPAQDLVDHEWHVLPQESIFRFSFVPVVDGDFLSDTPEALINTGDFQDLQVLVGVVKDEGSAFLVYGVPGFSKDNESLISRAQFLAGVRIGVPQASDLAAEAVVLHYTDWLHPEDPTHLRDAMSAVVGDHNVVCPVAQLAGRLAAQGARVYAYIFEHRASTLTWPLWMGVPHGYEIEFIFGLPLDPSLNYTTEERIFAQRLMKYWTNFARTGDPNDPRDSKSPQWPPYTTAAQQYVSLNLKPLEVRRGLRAQTCAFWNRFLPKLLSATDTLDEAERQWKAEFHRWSSYMVHWKNQFDHYSKQERCSDL
B2: unnamed (protein)
chain: B1 chain with F326Y, A368Y
B3: unnamed (protein)
chain: B1 chain with F328I, A368Y
B4: unnamed (protein)
chain: B1 chain with F326L, F328I, A368Y
B5: unnamed (protein)
chain: B1 chain with Y103N, D105N, Y155Q, W317A, A368Y
B6: unnamed (protein)
chain: B1 chain with Y103N, Y155Q, W317A, A368Y
B7: unnamed (protein)
chain: B1 chain with A368Y
B8: unnamed (protein)
chain: B1 chain with R327S, A368Y
B9: unnamed (protein)
chain: B1 chain with D105N, A368Y

Substrate: Acetylcholine
Conditions: pH 7; 22 °C

Protein | Km | kcat | kcat/Km
B1 | 110 µM | 867 s⁻¹ | 
B2 | 17 µM | 102 s⁻¹ | 
B3 | 357000 µM | 250 s⁻¹ | 700 M⁻¹ s⁻¹
B4 | 200 µM | 200 s⁻¹ | 
B5 | 2100 µM | 2500 s⁻¹ | 
B6 | 230 µM | 2500 s⁻¹ | 
B7 | 451000 µM | 667 s⁻¹ | 1480 M⁻¹ s⁻¹
B8 | 50 µM | 1530 s⁻¹ | 
B9 | 1300 µM | 1400 s⁻¹ | 
